Measured values as given in patent publication US20160311870A1 (SWEDISH ORPHAN BIOVITRUM AB PUBL, published 2016).

Molecular target: T1, human complement component 5 (C5) (human, UniProt P01031 19-673; P01031 678-1676)
T1 construct: Bought human C5 (Quidel Cat #403 / A403); also called human C5; hC5
Assay: BLI (ForteBio), compound captured on HSA sensor, human C5 in solution
Procedure: Human serum albumin was immobilized to Amine Reactive 2nd generation (AR2G) Dip and Read Biosensors (Pall Life sciences (ForteBio) Cat #18-5092) by amine coupling. […] Regeneration conditions for the sensors were 10 mM Glycine, pH 2 (three pulses with 30 seconds and running buffer for 60 seconds). Each spectrogram was reference subtracted against an analogous construct containing an albumin binding domain (SEQ ID NO: 250) but without the C5 binding capacity. The data were analyzed according to Langmuir 1:1 model using ForteBio Analysis 7.1 (Pall Life sciences (ForteBio) kinetics software).

B1: PSI0383 (designed binder)
chain: AEAKYAKEVLEAWDEIDRLPNLTIEQWLAFINKLDRQPEQSSELLSEAKKLSESQAPKVEGSLAEAKEAANAELDSYGVSDFYKRLIDKAKTVEGVEALKDAILAALP
notes: N52S, D53E, D60E and loop changes D36R, D37Q, S39E against PSI0242
With B1 the “Rel. KD (KD relative to PSI0242)” value was 2.1.
